Reference: patent publication CN113121686A (MABWELL SHANGHAI BIOTECHNOLOGY CO LTD, dated 2021)

Columns and labels:
人PD-L1/mFc重组蛋白 = biological target: T1, 人PD-L1/mFc重组蛋白 (human, UniProt Q9NZQ7 19-238); assay: competition ELISA; PD-1-hFc coated, PD-L1-mFc 1 ug/mL, antibody titrated from 4.5 ug/mL
T1 construct: range 19-238; not shown: mouse Fc (mFc)

人PD-L1全长(细胞表面表达) [1] = biological target: T2, 人PD-L1全长(细胞表面表达) (human, UniProt Q9NZQ7 19-290); assay: cell-based or functional assay
人PD-L1-His重组蛋白 [2] = biological target: T3, 人PD-L1-His重组蛋白 (human, UniProt Q9NZQ7 19-238); assay: BLI (Fortebio Octet QKe), antibody captured on AHC probe, human PD-L1-His 60 nM, 1:1 Langmuir fit
T3 construct: range 19-238; also called 人PD-L1胞外区结构域重组蛋白; 重组人PD-L1; not shown: His tag
T3 sequence (Q9NZQ7 19-238 limits assumed): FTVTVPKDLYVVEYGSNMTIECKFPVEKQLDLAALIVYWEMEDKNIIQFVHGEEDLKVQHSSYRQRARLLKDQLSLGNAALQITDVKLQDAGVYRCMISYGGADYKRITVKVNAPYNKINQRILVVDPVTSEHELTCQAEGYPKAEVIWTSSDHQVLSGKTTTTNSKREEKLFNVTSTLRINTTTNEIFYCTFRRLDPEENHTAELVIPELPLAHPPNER

人PD-L1全长(细胞表面表达) [3] = biological target: T2, 人PD-L1全长(细胞表面表达); assay: flow cytometry (MFI) on CHO-PD-L1-CD3L cells, antibody titrated from 30 ug/mL
人PD-L1-His重组蛋白 [4] = biological target: T3, 人PD-L1-His重组蛋白; assay: BLI (Fortebio Octet QKe), antibody captured on AHC probe, human PD-L1-His 100 nM, 1:1 Langmuir fit
人PD-L1-His重组蛋白 [5] = biological target: T3, 人PD-L1-His重组蛋白; assay: BLI (Fortebio Octet QKe), antibody captured on AHC probe, human PD-L1-His 50 nM and 20 nM, 1:1 Langmuir fit
PD-L2-hFc = biological target: T4, PD-L2-hFc (human, UniProt Q9BQ51 20-220); assay: ELISA; protein coated at 2 ug/mL
T4 construct: range 20-220; not shown: human Fc (hFc)
T4 sequence (looked up): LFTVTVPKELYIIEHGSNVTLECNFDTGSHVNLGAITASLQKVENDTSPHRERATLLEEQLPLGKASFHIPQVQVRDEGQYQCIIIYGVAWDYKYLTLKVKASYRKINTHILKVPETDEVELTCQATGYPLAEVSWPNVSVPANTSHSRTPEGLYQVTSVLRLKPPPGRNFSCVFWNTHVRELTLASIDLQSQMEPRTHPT

重组人CD28 = biological target: T5, 重组人CD28 (human, UniProt P10747 19-152); assay: ELISA; protein coated at 2 ug/mL
T5 construct: Bought protein; also called Cat:11524-HCCH
T5 sequence (P10747 19-152 limits assumed): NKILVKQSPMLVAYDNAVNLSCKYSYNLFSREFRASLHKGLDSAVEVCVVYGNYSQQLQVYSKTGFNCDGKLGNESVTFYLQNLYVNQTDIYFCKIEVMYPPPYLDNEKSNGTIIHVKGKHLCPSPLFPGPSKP

CTLA4-His = biological target: T6, CTLA4-His (human, UniProt P16410 36-162); assay: ELISA; protein coated at 2 ug/mL
T6 construct: Bought protein; also called Cat:11159-H08H; not shown: His tag
T6 sequence (looked up): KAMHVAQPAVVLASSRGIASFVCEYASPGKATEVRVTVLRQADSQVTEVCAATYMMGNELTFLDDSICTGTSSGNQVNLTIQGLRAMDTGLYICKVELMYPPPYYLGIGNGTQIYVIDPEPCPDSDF

B7H3-His = biological target: T7, B7H3-His (human, UniProt Q5ZPR3 29-239); assay: ELISA; protein coated at 2 ug/mL
T7 construct: range 29-239; not shown: His tag
T7 sequence (looked up): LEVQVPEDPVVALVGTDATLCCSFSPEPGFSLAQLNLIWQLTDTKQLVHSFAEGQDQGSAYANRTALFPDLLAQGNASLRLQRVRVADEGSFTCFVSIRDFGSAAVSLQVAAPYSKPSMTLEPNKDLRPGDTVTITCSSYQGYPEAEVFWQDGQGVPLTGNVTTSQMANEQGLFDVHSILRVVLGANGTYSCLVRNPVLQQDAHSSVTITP

T1 sequence (Q9NZQ7 19-238 limits assumed): as the sequence (Q9NZQ7 19-238 limits assumed) above

B1: H182-MUT4 (antibody, human IgG1, kappa, V domains shown)
VH: EVQLVQSGAEVKKPGATVKISCKVSGFNIKDIYMHWVQQAPGKGLEWMGRIDPANANTKYDPKFQDRVTITADTSTNTAYMELSSLRSEDTAVYYCASGQLGPLGFDYWGQGTTVTVSS
VL: DIQMTQSPSSLSASVGDRVTITCRASQDISNYLNWYQQKPGKAPKLLLYYTSRLHSGVPSRFSGSGSGTDYTLTISSLQPEDFATYFCQQGAGRPYTFGGGTKVEIKR
notes: also called h182-LCDR3-4+h182-HCDR2-3
For B1, the IC50 (人PD-L1/mFc重组蛋白) was 6.24 nM, the “ADCC EC50 (MDA-MB-231 target cells, NK92 effector cells, calcein release)” value (人PD-L1全长(细胞表面表达) [1]) was 0.96 ng/mL and the Kd (人PD-L1-His重组蛋白 [2]) was 0.465 nM. The EC50 (人PD-L1全长(细胞表面表达) [3]) was 0.658 nM.

B2: 182-4 (antibody, V domains shown)
VH: EVQLVQSGAEVKKPGATVKISCKVSGFNIKDIYMHWVQQAPGKGLEWMGRIDPANGNTKYDPKFQDRVTITADTSTDTAYMELSSLRSEDTAVYYCATGQLGPLGFDYWGQGTTVTVSS
VL: DIQMTQSPSSLSASVGDRVTITCRASQDISNYLNWYQQKPGKAPKLLLYYTSRLHSGVPSRFSGSGSGTDYTLTISSLQPEDFATYYCQQGNTLPYTFGGGTKVEIKR
Work on B2 yielded a Kd (人PD-L1-His重组蛋白 [4]) of 8.19 nM.

B3: 182-1 (antibody, V domains shown)
VH: EVQLVQSGAEVKKPGATVKISCKVSGFNIKDIYMHWVQQAPGKGLEWMGRIDPANGNTKYDPKFQDRVTITADTSTDTAYMELSSLRSEDTAVYYCATGQLGPLGFDYWGQGTTVTVSS
VL: DIQMTQTTSSLSASLGDRVTISCRASQDISNYLNWYQQKPDGTVKLLIYYTSRLHSGVPSRFSGSGSGTDYSLTISNLEQEDIATYFCQQGNTLPYTFGGGTKLEIKR
For B3, the Kd (人PD-L1-His重组蛋白 [4]) was 5.82 nM.

B4: 182-5 (antibody, V domains shown)
VH: EVQLVQSGAEVKKPGATVKISCKVSGFNIKDIYMHWVQQAPGKGLEWMGRIDPANGNTKYDPKFQDRVTITADTSTNTAYMELSSLRSEDTAVYYCASGQLGPLGFDYWGQGTTVTVSS
VL: DIQMTQSPSSLSASVGDRVTITCRASQDISNYLNWYQQKPGKAPKLLLYYTSRLHSGVPSRFSGSGSGTDYTLTISSLQPEDFATYYCQQGNTLPYTFGGGTKVEIKR
For B4, the Kd (人PD-L1-His重组蛋白 [4]) was 3.43 nM.

B5: 182-3 (antibody, human IgG1, V domains shown)
VH: EVQLQQSGAELVKPGASVKLSCTVSGFNIKDIYMHWLKQRPEQGLEWIGRIDPANGNTKYDPKFQDKATMIADTSSNTAYLQLSSLTSEDTAVYYCASGQLGPLGFDYWGQGTTLTVSS
VL: DIQMTQSPSSLSASVGDRVTITCRASQDISNYLNWYQQKPGKAPKLLLYYTSRLHSGVPSRFSGSGSGTDYTLTISSLQPEDFATYYCQQGNTLPYTFGGGTKVEIKR
notes: also called h182L1 + Ch182H
With B5 the Kd (人PD-L1-His重组蛋白 [4]) was 4.77 nM.

B6: 182-7 (antibody, V domains shown)
VH: EVQLVQSGAEVKKPGATVKISCKVSGFNIKDIYMHWVQQAPGKGLEWMGRIDPANGNTKYDPKFQDRVTITADTSTDTAYMELSSLRSEDTAVYYCATGQLGPLGFDYWGQGTTVTVSS
VL: DIQMTQSPSSLSASVGDRVTITCRASQDISNYLNWYQQKPGKAPKLLLYYTSRLHSGVPSRFSGSGSGTDYTLTISSLQPEDFATYFCQQGNTLPYTFGGGTKVEIKR
For B6, the Kd (人PD-L1-His重组蛋白 [4]) was 5.68 nM.

B7: h182 (antibody, V domains shown)
VH: EVQLVQSGAEVKKPGATVKISCKVSGFNIKDIYMHWVQQAPGKGLEWMGRIDPANGNTKYDPKFQDRVTITADTSTNTAYMELSSLRSEDTAVYYCASGQLGPLGFDYWGQGTTVTVSS
VL: DIQMTQSPSSLSASVGDRVTITCRASQDISNYLNWYQQKPGKAPKLLLYYTSRLHSGVPSRFSGSGSGTDYTLTISSLQPEDFATYFCQQGNTLPYTFGGGTKVEIKR
In the case of B7, the Kd (人PD-L1-His重组蛋白 [4]) is reported as 3.64 nM.

B8: 182-2 (antibody, V domains shown)
VH: EVQLVQSGAEVKKPGATVKISCKVSGFNIKDIYMHWVQQAPGKGLEWMGRIDPANGNTKYDPKFQDRVTITADTSTNTAYMELSSLRSEDTAVYYCASGQLGPLGFDYWGQGTTVTVSS
VL: DIQMTQTTSSLSASLGDRVTISCRASQDISNYLNWYQQKPDGTVKLLIYYTSRLHSGVPSRFSGSGSGTDYSLTISNLEQEDIATYFCQQGNTLPYTFGGGTKLEIKR
B8 was tested, and the Kd (人PD-L1-His重组蛋白 [4]) was 1.93 nM.

B9: 182-6 (antibody, human IgG1, V domains shown)
VH: EVQLQQSGAELVKPGASVKLSCTVSGFNIKDIYMHWLKQRPEQGLEWIGRIDPANGNTKYDPKFQDKATMIADTSSNTAYLQLSSLTSEDTAVYYCASGQLGPLGFDYWGQGTTLTVSS
VL: DIQMTQSPSSLSASVGDRVTITCRASQDISNYLNWYQQKPGKAPKLLLYYTSRLHSGVPSRFSGSGSGTDYTLTISSLQPEDFATYFCQQGNTLPYTFGGGTKVEIKR
notes: also called h182L2 + Ch182H
B9 gave a Kd (人PD-L1-His重组蛋白 [4]) of 4.64 nM.

B10: 嵌合抗体Ch182 (antibody, human IgG1, V domains shown)
VH: EVQLQQSGAELVKPGASVKLSCTVSGFNIKDIYMHWLKQRPEQGLEWIGRIDPANGNTKYDPKFQDKATMIADTSSNTAYLQLSSLTSEDTAVYYCASGQLGPLGFDYWGQGTTLTVSS
VL: DIQMTQTTSSLSASLGDRVTISCRASQDISNYLNWYQQKPDGTVKLLIYYTSRLHSGVPSRFSGSGSGTDYSLTISNLEQEDIATYFCQQGNTLPYTFGGGTKLEIK
For B10, the Kd (人PD-L1-His重组蛋白 [4]) was 2.14 nM and the Kd (人PD-L1-His重组蛋白 [5]) was ~2.02 nM.

B11: 182鼠抗体 (antibody, V domains shown)
VH: EVQLQQSGAELVKPGASVKLSCTVSGFNIKDIYMHWLKQRPEQGLEWIGRIDPANGNTKYDPKFQDKATMIADTSSNTAYLQLSSLTSEDTAVYYCASGQLGPLGFDYWGQGTTLTVSS
VL: DIQMTQTTSSLSASLGDRVTISCRASQDISNYLNWYQQKPDGTVKLLIYYTSRLHSGVPSRFSGSGSGTDYSLTISNLEQEDIATYFCQQGNTLPYTFGGGTKLEIK
notes: Tested as hybridoma supernatant or as purified mouse antibody; also called m182
B11: no binding (tested: 1ug/ml) (PD-L2-hFc); no binding (tested: 1ug/ml) (重组人CD28); no binding (tested: 1ug/ml) (CTLA4-His). B11: no binding (tested: 1ug/ml) (B7H3-His).
